The Kd is a measure of binding affinity in units of concentration. Lower therefore signals tighter binding.

The subject of this data set is SOX2 (hSOX2) (human). Nature of the data set: EMSA. Conditions: Plasmid EMSA: 60 mM KCl, 12 mM Hepes pH 7.9, 2 mM MgCl2, 1 mM DTT, 0.12 mM EDTA, 12% glycerol, 0.01% NP40, 10 ng/uL DNA, 15 min 30 C; 0.8% agarose 0.5x TBE. …. (Mobility shift assays separate free from complexed probe on a gel.)

In the case of SOX2 specific-site EMSA probe, the Kd was found to be 2 nM.
With SOX2 non-specific-site EMSA probe, the binding signal (fold higher Kd than specific site) stood at 30.

The values are drawn from PMC8184831.
